The results in this text go back to US20250092148A1 (Kyowa Kirin, published 2025).

The labels stand for the following.
T1: human CD116 soluble antigen (His-tag form) (human, UniProt P15509 23-320)
T1 construct: extracellular domain; expressed in Expi293F cells; also called hCD116-His
T1 sequence (looked up): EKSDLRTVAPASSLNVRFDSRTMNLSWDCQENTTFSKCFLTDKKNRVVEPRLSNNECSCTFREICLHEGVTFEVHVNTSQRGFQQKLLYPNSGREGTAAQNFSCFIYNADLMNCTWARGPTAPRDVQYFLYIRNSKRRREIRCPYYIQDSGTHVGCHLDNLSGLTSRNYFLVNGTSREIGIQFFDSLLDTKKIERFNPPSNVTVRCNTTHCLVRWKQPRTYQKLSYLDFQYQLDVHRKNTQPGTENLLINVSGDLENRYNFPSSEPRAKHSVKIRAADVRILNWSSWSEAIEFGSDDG

B1: 116-413 (Fab, V domains shown)
VH: QVQLVQSGAEVKKPGASVKVSCKVSGYTLTDLSMHWVRQAPGKGLEWMGGFDPEDGETIYAQKFQGRVTMTEDTSTDTAYMELSSLRSEDTAVYYCATGLFYYQYGMDVWGQGTTVTVSS
VL: not shown
notes: phage library clone, E. coli culture supernatant
B2: 116-465 (Fab, V domains shown)
VH: QVQLVQSGAEVKKPGASVKVSCKVSGYPLTDLSMHWVRQAPGEGLEWMGGSDPEDGETIYAQKFQGRVTVTEDTSTDTAYMELSNLRSEDTAVYYCATGLFYYQYGMDVWGQGTTVTVSS
VL: not shown
notes: as for B1
B3: 116-421 (Fab, V domains shown)
VH: QVQLQQSGAEVKKPGASVKVSCKVSGYTLTDLSMHWVRQAPGKGLEWMGGFDPEDGERIYAQKFQGRVTMTEDTATDTAYMELSSLRSEDTAVYHCATGLFYYQYGMDVWGQGTTVTVSS
VL: not shown
notes: as for B1
B4: 116-439 (Fab, V domains shown)
VH: QVQLQQSGAEVKKPGASVKVSCKVSGYTLTDLSMHWVRQAPGKGLEWMGGFDPEDGERIYAQKFQGRVTMTEDTSTDTAYMELSSLRSEDTAVYYCATGLFYYQYGMDVWGQGTLVTVSS
VL: not shown
notes: as for B1
B5: 116-412 (Fab, V domains shown)
VH: EVQLVQSGAEVKKPGASVKVSCKVSGYTLTDLSMHWVRQAPGKGLEWMGGLDPEDGETIYAQKFQGRVTMTEDTSTDTAYMELSSLRSEDTAVYYCATGLFYYQYGMDVWGQGTLVTVSS
VL: not shown
notes: as for B1
B6: 116-435 (Fab, V domains shown)
VH: EVQLVQSGAEVKKPGASVKVSCKVSGYTLTELSMHWVRQAPGKGLEWMGGFDPEDGERIYAQKFQGRVTMTEDTSTDTAYMELSSLRSEDTAVYYCATGLFYYQYGMDVWGQGTTVTVSS
VL: not shown
notes: as for B1
B7: 116-433 (Fab, V domains shown)
VH: QVQLVQSGAEVKKPGASVKVSCKVSGYTLTDFAIHWVRQAPGKGLEWMGGFDPEDGERIYAQKFQGRVTMTEDTSTDTAYMELSSLRSEDTAVYYCTTGLFYYQYGMDVWGQGTLVTVSS
VL: not shown
notes: as for B1
B8: 116-463 (Fab, V domains shown)
VH: QVQLVQSGAEVKKPGASVKVSCKVSGYTLTDFAIHWVRQAPGKGLEWMGGFDPEDGERIYAQKFQGRVTMTEDTSTDTAYMELSSLRSEDTAVYYCATGLFYYQYGMDVWGQGTTVTVSS
VL: not shown
notes: as for B1
B9: 116-398 (Fab, V domains shown)
VH: EVQLVQSGAEVKKPGASVKVSCKVSGYTLAELSMHWVRQAPGKGLEWMGGFDPEDGERIYAQKFQGRVTMTEDTSKDTAYMELSSLRSEDTAVYYCTTGLFYYQYGMDVWGQGTMVTVSS
VL: not shown
notes: phage library clone, tested as E. coli culture supernatant (FLAG-His tag)
B10: 116-464 (Fab, V domains shown)
VH: QVQLVQSGAEVKKPGASVKVSCKVSGYTLTDLSMHWVRQAPGKGLEWMGGFDPEDGERIYAQKFQGRVTMTEDTSTDTAYMELSSLRSEDTAMYYCATGLFYYQYGMDVWGQGTTVTVSS
VL: not shown
notes: as for B1
B11: 116-466 (Fab, V domains shown)
VH: QVQLVQSGAEVKKPGASVKVSCKVSGYTLTDLSMHWVRQAPGKGLEWMGGFDPEDGERIYAQKFQDRVTMTEDTSTDTAYMELSSLRSEDTAVYYCATGLFYYQYGMDVWGQGTLVTVSS
VL: not shown
notes: as for B1

The target in the experiment is T1, human CD116 soluble antigen (His-tag …). Description: screening by ELISA on biotinylated antigen and by flow cytometry, E. coli supernatant. On the technique in general: ELISA stands for enzyme-linked immunosorbent assay.
Description: Using the obtained monoclonal Escherichia coli culture supernatant, screening for clones that bind to both human CD116 and monkey CD116 was performed by ELISA and FCM described below.
In screening by ELISA, a MAXISORP plate (manufactured by NUNC Corporation) was immobilized with streptavidin (manufactured by Thermo Fisher Scientific) and blocked using 1% BSA-PBS (manufactured by Nacalai Tesque, Inc.), and then the biotinylated human CD116 soluble antigen (His-tag form) or the biotinylated monkey CD116 soluble antigen (His-tag form) binds thereto. Each Escherichia coli culture supernatant was added to each well of the plate and allowed to react for 60 minutes at room temperature, and then each well was washed 3 times with PBS-T.
Next, HRP-labeled Goat poly, anti-human IgG F(ab′)₂ (manufactured by Abcam) was diluted 1000 times with 1% BSA-PBS, and 50 μL thereof was added to each well, followed by incubating at room temperature for 30 minutes. After washing the microplate 3 times with PBS-T, 50 μL of TMB color developing substrate solution (manufactured by DAKO) was added to each well, followed by incubating at room temperature for 10 minutes. A 2N HCl solution (50 μL/well) was added to each well to stop the color developing reaction, and an absorbance at a wavelength of 450 nm (reference wavelength: 570 nm) was measured using a plate reader (EnSpire: manufactured by PerkinElmer).
Regarding B1, the binding result is “binds”.
Next, B2: “binds”; B3: “binds”; B4: “binds”.
Next, B5: “binds”; B6: “binds”; B7: “binds”.
Take B8: the binding result is on record as “binds”.
In the case of B9, the binding result is “binds”.
Next, B10: “binds”; B11: “binds”.
